{
  "source": "paper PMC9063846",
  "about": "“The structure of Phocaeicola vulgatus sialic acid acetylesterase” (Acta Crystallographica. Section D, Structural Biology, 2022)",
  "substrate": "CC(=O)Oc1ccc([N+](=O)[O-])cc1",
  "test": "purified protein",
  "assay_type": "biochemical, Phocaeicola vulgatus",
  "details": "10 nM enzyme, 100 mM phosphate-citrate buffer pH 7.0, 25 °C, 1% DMSO",
  "data": [
    {"protein": "PvSAE (Phocaeicola vulgatus ATCC 8482) (protein, signal peptide removed (predicted cleavage 19/20); E. coli BL21(DE3) Gold) ERKYSTFYEQRATLFEELPVTSKDIIFLGNSITNGCEWAELFQNKNVKNRGISGDICMGVYDRLDPIVKGKPAKIFLLIGINDVSRGTSADKIISEISMIVRKIKQESPKTKLYLQSVLPVNDCYGMFNGHTSRWQVVKQINDLLEPLAVKEGVAYIDLYSHFVEKETGKMNPVYTNDGLHLLGKGYLLWRDIVKPYVDQK", "values": [
      {"measurement": "Km", "result": "80 ± 6", "unit": "µM"},
      {"measurement": "kcat", "result": "75 ± 1", "unit": "s⁻¹"},
      {"measurement": "kcat/Km", "result": "930000 ± 70000", "unit": "M⁻¹ s⁻¹"}
    ]}
  ]
}
